Measurements taken from patent CN113045656A (TAIZHOU ENZE MEDICAL CT GROUP, dated 2021).

Target: T1, G5-pep2(299-319aa) 抗原肽 (human)
T1 peptide: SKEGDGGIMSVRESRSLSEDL
Test: indirect ELISA, peptide coated at 2 ug/ml, purified antibody in 2-fold dilutions from 1:200, logistic fit

Ka: 1.5e+11 M⁻¹ | X0 (midpoint of the logistic fit, antibody dilution factor): 1.56e+06 dilution fold
B1: 抗HLA-G异构体分子HLA-G5及HLA-G6的单克隆抗体(9Y5G6) (antibody, V domains shown)
VH: VQLQESGGGLVQPGGSRKLSCAASGFTFRDFGMAWVRQVPGMGPEWVASISNLARIIDYADTVTGRFTISRENAKNTLYLEMNSLRSEDSAIYYCARVTTIVPDYWGQGTSLTVSS
VL: DIVITQDELSLPVSLGDHTSISCRSSQSLLHSNGHTYLHWYLQKPGQSPKLLIYKVSNRFSGVPDRFSGSGSGTDFTLKISRVEAEDLGVYFCSQSTHVPWTFGGGTKVEIKR
notes: only the CDRs are; also called 抗HLA-G单克隆抗体(9Y5G6)
